Data taken from PMC8860586, “Vimentin binds to G-quadruplex repeats found at telomeres and gene promoters”.

Tests used:
[1] = molecular target: T1, Vimentin (Homo sapiens, UniProt P08670 2-466); assay: fluorescence anisotropy; 150 mM KCl, pH 8.4, 25 C; tetramer concentration, 1:1 fit; 5 mM Tris-HCl pH 8.4, 150 mM KCl; FA 5 nM DNA at 25 C; EMSA 500 nM DNA + 8 uM vimentin, 1 h room temperature, 1.5% agarose 0.5x TBE + 10 mM KCl, run at 4 C; details: protein: commercial; chain copies: 4; label: 5'-6-FAM; two adjacent G4s
T1 sequence (P08670 2-466): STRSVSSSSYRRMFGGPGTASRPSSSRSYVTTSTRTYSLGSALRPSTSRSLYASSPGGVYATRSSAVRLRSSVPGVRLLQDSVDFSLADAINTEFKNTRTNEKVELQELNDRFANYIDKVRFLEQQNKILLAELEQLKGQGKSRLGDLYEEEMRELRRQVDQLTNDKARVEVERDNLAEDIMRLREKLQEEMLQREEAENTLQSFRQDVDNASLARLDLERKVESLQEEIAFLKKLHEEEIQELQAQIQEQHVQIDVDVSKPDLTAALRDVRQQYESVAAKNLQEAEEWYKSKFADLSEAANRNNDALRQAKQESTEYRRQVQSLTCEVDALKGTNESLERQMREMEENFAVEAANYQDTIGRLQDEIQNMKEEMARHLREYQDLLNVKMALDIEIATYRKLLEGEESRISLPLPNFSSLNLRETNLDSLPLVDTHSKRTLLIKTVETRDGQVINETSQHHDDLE

[2] = molecular target: T1, Vimentin; assay: EMSA; 150 mM KCl, pH 8.4; 5 mM Tris-HCl pH 8.4, 150 mM KCl; FA 5 nM DNA at 25 C; EMSA 500 nM DNA + 8 uM vimentin, 1 h room temperature, 1.5% agarose 0.5x TBE + 10 mM KCl, run at 4 C; details: protein: commercial, chain copies: 4
[3] = molecular target: T1, Vimentin; assay: EMSA; 150 mM KCl, pH 8.4; two complexes; 5 mM Tris-HCl pH 8.4, 150 mM KCl; FA 5 nM DNA at 25 C; EMSA 500 nM DNA + 8 uM vimentin, 1 h room temperature, 1.5% agarose 0.5x TBE + 10 mM KCl, run at 4 C; details: protein: commercial; chain copies: 4; three adjacent G4s
[4] = molecular target: T1, Vimentin; assay: EMSA; no KCl, pH 8.4; 5 mM Tris-HCl pH 8.4, 150 mM KCl; FA 5 nM DNA at 25 C; EMSA 500 nM DNA + 8 uM vimentin, 1 h room temperature, 1.5% agarose 0.5x TBE + 10 mM KCl, run at 4 C; details: protein: commercial; chain copies: 4; unfolded single strand
[5] = molecular target: T1, Vimentin; assay: EMSA; 150 mM KCl, pH 8.4; Job plot max 0.1 DNA fraction, two tetramers per DNA; 5 mM Tris-HCl pH 8.4, 150 mM KCl; FA 5 nM DNA at 25 C; EMSA 500 nM DNA + 8 uM vimentin, 1 h room temperature, 1.5% agarose 0.5x TBE + 10 mM KCl, run at 4 C; details: protein: commercial; chain copies: 4; four adjacent G4s

B1: FAM-2TEL (structured_DNA)
DNA: TTAGGGTTAGGGTTAGGGTTAGGGTTAGGGTTAGGGTTAGGGTTAGGG
For B1, which Kd [1] is on record?
Its Kd is 25.7 ± 2.4 nM.

B2: TEL (structured_DNA)
DNA: TTAGGGTTAGGGTTAGGGTTAGGG
Does B2 bind ([2]; single G4)?
Result: no binding

B3: KIT* (structured_DNA)
DNA: GGCGAGGAGGGGCGTGGCCGGC
Does B3 bind ([2]; single G4)?
Result: no binding

B4: 3TEL (structured_DNA)
DNA: TTAGGGTTAGGGTTAGGGTTAGGGTTAGGGTTAGGGTTAGGGTTAGGGTTAGGGTTAGGGTTAGGGTTAGGG
Does B4 bind [3]?
Result: binds

B5: ILPR (structured_DNA)
DNA: ACAGGGGTGTGGGGACAGGGGTGTGGGGACAGGGGTGTGGGGACAGGGGTGTGGGG
Does B5 bind ([2]; G4 repeat)?
Result: binds

B6: KIT2 (structured_DNA)
DNA: CGGGCGGGCGCGAGGGAGGGG
Does B6 bind ([2]; single G4)?
Result: no binding

B7: G-rich noG4 (ssDNA)
DNA: TGGCCCTGGTGGGCGGAGGCAAAGGGGGAGCCAGGGGCGGAGAAAGGGT
Does B7 bind [4]?
Result: binds

B8: 4TEL (structured_DNA)
DNA: TTAGGGTTAGGGTTAGGGTTAGGGTTAGGGTTAGGGTTAGGGTTAGGGTTAGGGTTAGGGTTAGGGTTAGGGTTAGGGTTAGGGTTAGGGTTAGGG
Does B8 bind [5]?
Result: binds

B9: hTERT (structured_DNA)
DNA: GGGGAGGGGCTGGGAGGGCCCGGAGGGGGCTGGGCCGGGGACCCGGGAGGGGTCGGGACGGGGCGGGG
Does B9 bind ([2]; G4 repeat)?
Result: binds

B10: KIT2KIT* (structured_DNA)
DNA: CGGGCGGGCGCGAGGGAGGGGAGGCGAGGAGGGGCGTGGCCGGC
Does B10 bind ([2]; two adjacent G4s)?
Result: binds
